This data set deals with the molecule itself. In words: crystal structure; PseM (28-186) at 27 mg/ml; 0.1 M Mes monohydrate pH 7.0, 2.0 M NaCl, 1% benzamidine-HCl, 291 K; SAD, 2.0 Å, space group P4(3)2(1)2; homodimer in the asymmetric unit.

B1: N-terminal-truncated PseM (residues from 28 to 186) (enzyme)
chain: STGDYWIVYGKGERYNNEVFVANATGILQQPKGIQSAQIIQLFEDRSMPTLTAYEVQFKCKERRVRFDNARAMRRIDNVITNVKTVDGWIDPEKYDYWLQRSFAFVCAPAIRDNNQMLPLGKMPIARMVQTVQAMFVELQGVQAKKQTMRDLDAMLGNE
notes: PseM (PA0989), P. aeruginosa, residues 28 to 186, without the N-terminal signal peptide
The stoichiometry N is a count of units in the complex or per binding partner. Consider B1, for which the “stoichiometry N” value came to 2.

The record behind these values is PMC12494544 (The Journal of Biological Chemistry, 2025).
